Assay results: paper PMC10199079, “ERK and USP5 govern PD-1 homeostasis via deubiquitination to modulate tumor immunotherapy” (Nature Communications, 2023)

Tests used:
USP5 [1] = biological target: USP5 (UniProt P45974); experiment: anti-HA co-immunoprecipitation, immunoblot; conditions: reference: PD-1 wild type; sites T234
USP5 [2] = biological target: USP5 (UniProt P45974); experiment: GST-USP5 pull-down from cell lysate; conditions: reference: PD-1-cHA wild type lysate; sites T234
USP5 [3] = biological target: USP5 (UniProt P45974); experiment: biotin-peptide streptavidin pull-down; conditions: reference: unphosphorylated PD-1 peptide; sites T234
USP5 UBA1/2 domains = USP5 UBA1/2 domains (UniProt P45974); experiment: biotin-peptide streptavidin pull-down; conditions: reference: unphosphorylated PD-1 peptide; sites T234
USP5 [4] = biological target: USP5 (UniProt P45974); experiment: GST pull-down with purified His-USP5; conditions: reference: GST-PD-1 (192-288) wild type, ERK1-treated; sites T234
His-USP5 = biological target: T1, His-USP5 (human, UniProt P45974 1-858); experiment: pull-down; bacterially purified GST-PD-1 (192-288) phosphorylated by ERK1 in vitro, then GST pull-down with purified recombinant His-USP5, immunoblot; conditions: both partners purified
T1 construct: recombinant human USP5, His-tagged; also called recombinant human USP5 protein; purified recombinant His-USP5; source: bought: Sino biological (12772-H08B), purified recombinant USP5 from baculovirus-insect cells
T1 sequence (looked up): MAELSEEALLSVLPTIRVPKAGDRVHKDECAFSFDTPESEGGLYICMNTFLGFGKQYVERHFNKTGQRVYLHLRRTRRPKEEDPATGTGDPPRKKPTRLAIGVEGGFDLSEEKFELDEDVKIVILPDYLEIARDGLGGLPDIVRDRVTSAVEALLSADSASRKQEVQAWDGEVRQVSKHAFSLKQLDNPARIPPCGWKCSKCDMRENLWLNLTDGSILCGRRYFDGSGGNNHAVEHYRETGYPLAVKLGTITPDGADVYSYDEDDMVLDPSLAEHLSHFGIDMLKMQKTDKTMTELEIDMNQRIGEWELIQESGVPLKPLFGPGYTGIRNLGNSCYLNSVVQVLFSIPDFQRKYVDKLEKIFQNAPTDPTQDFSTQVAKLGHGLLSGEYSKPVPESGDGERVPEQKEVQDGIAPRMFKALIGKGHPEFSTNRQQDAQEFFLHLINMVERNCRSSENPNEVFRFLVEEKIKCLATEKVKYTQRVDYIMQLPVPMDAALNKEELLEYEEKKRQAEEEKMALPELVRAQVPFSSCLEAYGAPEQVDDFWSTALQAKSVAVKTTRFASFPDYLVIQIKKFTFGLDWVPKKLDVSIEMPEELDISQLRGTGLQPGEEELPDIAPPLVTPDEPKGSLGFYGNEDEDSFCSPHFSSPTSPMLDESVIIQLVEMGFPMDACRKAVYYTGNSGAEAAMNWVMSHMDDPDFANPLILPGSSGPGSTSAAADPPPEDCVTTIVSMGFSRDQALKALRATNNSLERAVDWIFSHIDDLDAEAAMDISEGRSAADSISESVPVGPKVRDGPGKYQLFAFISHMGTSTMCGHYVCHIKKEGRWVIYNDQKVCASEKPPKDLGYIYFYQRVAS

## PD-1 (from UniProt Q15116) PD-1 T234A
USP5 [1]
  binding against the reference: weaker

## PD-1 (from UniProt Q15116) PD-1-cHA T234A lysate
USP5 [2]
  binding against the reference: weaker

## PD-1 (from UniProt Q15116) pT234 PD-1 peptide
USP5 [3]
  binding against the reference: gained
USP5 UBA1/2 domains
  binding against the reference: gained

## PD-1 cytoplasmic region, 192-288 (from UniProt Q15116) GST-PD-1 (192-288) T234A, ERK1-treated
USP5 [4]
  binding against the reference: weaker

B1: ERK1-phosphorylated GST-PD-1 (192-288) (domain or fragment, human, UniProt Q15116 192-288, looked up)
chain: CSRAARGTIGARRTGQPLKEDPSAVPVFSVDYGELDFQWREKTPEPPVPCVPEQTEYATIVFPSGMGTSSPARRGSADGPRSAQPLRPEDGHCSWPL
modifications: phosphorylated by ERK1 in vitro (the paper maps the ERK site to Thr234)
notes: source: E. coli BL21, purified, then phosphorylated by ERK1 in vitro
His-USP5
  binding result: binds
